Read-outs that look alike come from different tables or passages of the source.
Columns and labels:
[1] = molecular target: the molecule itself; experiment: SEC
[2] = molecular target: the molecule itself; experiment: SEC; remark: listed apart in the source

Protein	stoichiometry N [1]	stoichiometry N [2]
HtrA3 S305A (enzyme) LHQLSSPRYKFNFIADVVEKIAPAVVHIELFLRHPLFGRNVPLSSGSGFIMSEAGLIITNAHVVSSNSAAPGRQQLKVQLQNGDSYEATIKDIDKKSDIATIKIHPKKKLPVLLLGHSADLRPGEFVVAIGSPFALQNTVTTGIVSTAQREGRELGLRDSDMDYIQTDAIINYGNAGGPLVNLDGEVIGINTLKVTAGISFAIPSDRITRFLTEFQDKQIKDWKKRFIGIRMRTITPSLVDELKASNPDFPEVSSGIYVQEVAPNSPSQRGGIQDGDIIVKVNGRPLVDSSELQEAVLTESPLLLEVRRGNDDLLFSIAPEVVM	3	
HtrA3 F142A (enzyme) LHQLSSPRYKFNAIADVVEKIAPAVVHIELFLRHPLFGRNVPLSSGSGFIMSEAGLIITNAHVVSSNSAAPGRQQLKVQLQNGDSYEATIKDIDKKSDIATIKIHPKKKLPVLLLGHSADLRPGEFVVAIGSPFALQNTVTTGIVSTAQREGRELGLRDSDMDYIQTDAIINYGNSGGPLVNLDGEVIGINTLKVTAGISFAIPSDRITRFLTEFQDKQIKDWKKRFIGIRMRTITPSLVDELKASNPDFPEVSSGIYVQEVAPNSPSQRGGIQDGDIIVKVNGRPLVDSSELQEAVLTESPLLLEVRRGNDDLLFSIAPEVVM		3
